Results on 17 sequences are retold here after the DeepSol protein solubility set.

A short description of this data set: soluble on expression in E. coli; label from the status in PepcDB or PDB records.
Turning to “MILMRTIDWNEESNSVVLVDQTLLPQEYKVIECKTLSSLCEAIQSLRIRGAPALGAAGGFGIALAAYLSGAKDIESMTKDLKVAAKALKSTRPTAVNLAWGVDRVLNAISDAFDFRGIRDIALQEARDIAEEDIETNKLIGKYGAKLLKDGDTVLTHCNAGRLACVDWGTALGVVRSAIADGKEIKVLACETRPLNQGSRITTWELMQDKIPVTLIADSMAGWAMRQGLVNSVLVGADRITQDVVFNKIGTYTHSILAREHEIPFYVAAPVSTFDFEGWEGSIKIEMRNPDELRFAGCQQLAPEDVPVYNPAFDATPMENVTALITERGVFYPPILLDEVLVLEHHHHHH”, the “soluble on expression in E. coli” value is on record as “not soluble”.

As to “MILNILRLPHADEPTTSQSVQDYPLVHFSPRRHQKFRTIISVGDSDVIKDSSLTDEELYNIIHASPIARKSSTVSSTDSGYLGSSGASSSCVRSREGSTVSSTITVERTRRGGSTASSEPDSVADSEGAGSYSSFSSIASTASRMLGRAADCLVLMTKRNGWSGDAGSPSDEKGSSLDAQSWTTAIQSALMPVTPQSSVVGGKRIDKLKVPTEGKTRPPY”, the “soluble on expression in E. coli” value is “not soluble”.

Turning to “MILNPQQRTKLDSRRDDLFYAAPRFVTHVDDFFLARLTDLYRQYLQPQMRVLDLMSSWVSHLPPELSFQEVVGHGMNAAELARNPRLDRYFVQNLNEELALPLEDASFNAVLMAVSVQYLQYPEATFTEIARILKPQGVVIVSFSNRMFFEKAIQAWREGSEGDRVQLVQTYINSTPSLKVIATHLPRLWPWRGFTDPFYAVVGQKQAVLEHHHHHH”, the “soluble on expression in E. coli” value is listed as “soluble”.

Turning to “MILPNPLARRLFLHLHALAEPPTGPAKGEALLALIDRLGFVQIDSISTVARAHHMILFARRQAYRPEALDRLLAQRHLFEHWTHDAAVIPARFFPFWHHRFRRDRPRLLARWRGWQREGFEEQFDAVLARIAESGPVSAAEVGEEEERGTGGWWDWHPSKAALEYLWRVGELSITRRDSFRKVYDLTSRVIPSGWLAMDPGDAATIHWACSEALDRLGFATSGELAAFWAAASPAEAQAWCHDALARGEIVEVRVEGADGSLRRSYARPEVAALAEAAPDPSPRLRILSPFDPVLRDRARAERLFGFRYRIEVFVPEAKRTYGYYVFPILEGDRLIGRIDMRAHRESGSLRVRALWPEAGVRLGSRRLGRLGAELDRLAQFAGCDQVKFEPDWLRETLPEGSVAGDLEHHHHHH”, the “soluble on expression in E. coli” value is “not soluble”.

“MINRPSTVNNPFIGTNAVLRLRQQRLEQSTKPFRARGSRVMRCQQCLLPAINCLCHTIQAQPSRSRVCLVMFDTEPLKPSNTGRIIADILPETQAFRWSRTEPDPQLLATLQDPDVQPYLVFLADAAEEGRQVFQQLPATEKPALFVLLDGTWPEARKMFRKSPYLDNLPILSLNVEALSRYQLREASSAGQHCTAEIAIALLAQAGDIVAADALSQHFDRFRQHYLAGKPHHRLQENLPIVTAQPAESVLEHHHHHH”: the “soluble on expression in E. coli” value is reported as “not soluble”.

Regarding “MINRVPTNIITGFLGVGKTTAILHLLATKPAHEKWAVLVNEFGEIGIDGAIMSEQGAMIKEVPGGCLCCTAGVPMSVGINALLRQKPDRLIIEPTGLGHPKQVVATLISEQYQPYVDLKATIALMDPRHLSMDKYRSNQNFNDQLASADIVLGNKVDQCSSSDIDAFNDWVTDQTPAKTFSQLIKQGQFPIELLDMPRLVGHASTHIDSHHHHHAADEPQFQLAPQQPFLRKENRGQGYFSCGWLFGAEYQFNFDLLFQLLNDLTAERVKGVLNTDRGCYAFNVANGVVSVTEMSLDGFESRLEVIDSQLMPWSELESILLKIAGIPQALEHHHHHH”, the “soluble on expression in E. coli” value is listed as “not soluble”.

“MIPGMRATPTESFSFVYSCDLQTNVQVKVAEFEGIFRDVLNPVRRLNQLFAEITVYCNNQQIGYPVCTSFHTPPDSSQLARQKLIQKWNEWLTLPIRYSDLSRDAFLHITIWEHEDDEIVNNSTFSRRLVAQSKLSMFSKRGILKSGVIDVQMNVSTTPDPFVKQPETWKYSDAWGDEIDLLFKQVTRQSRGLVEDVPWLDPFASRRIEMIRAKYKYSSPDRHVFLVLEMAAIRLGPTFYKVVYYEDETKNMRVSTSVNGGVGIVSACTRYCVADPELLLESLAEVKHSAMTRRIRDVEDERHRQVKPNKQAKDRLETIVNLPSSQVLTREQRDLVWKFRHYLRQFPKALNKYLRSVNWVHPQEVKTALALMNDWELIEAEDALELLSSAFTHPAVRAYSVSRLLEAASPEQVLLYLPQLVQALKYEQGQQLPEEGNPVPVVSEEEGKIPSVATTPTEELEGRDMTVVTKKEARKAASGDLATFLIDYALASPKVSNYLYWHLKTEIESTKESKEEHSKMYQNIQDRLMEALVKRPDTRAQVDSLHQQQIFVEDLIILMNEAKARGGRLNESKSAEFRTMLSRAKHMLDLKGVHLPLDPSFRLSSVIPDTASFFKSEMMPAKISFKVLQPNGKADRNIPEEYTVIFKTGDDLRQDQLIQQMVRLIDIILKKGQLDLKLTPYLVLSTGVGQGFVQCIKSKPLRAIQEQYKAHKMDCIREAMKELRPGDGPFGIEPNVIDNYVRSLAGYSVIMYILGLGDRHLDNLLLCENGKLFHVDFGFILGRDPKPMPPPMKLTSEMVQVMGGVKSKQFLEFVQHVDSAYRILRRHSNVLLNLFSLMLDAGIPDIAAEPDKAIFKIEQRLRLDLSDEAATKHIFTQIESSLNAKMAMISDIIHAYKQNLM”: the “soluble on expression in E. coli” value is given as “not soluble”.

In the case of “MIPGTIPTSYLVPTADTEATGVVSLSARAAMLNNMDSAPLSNGGDVDLYDAFYQRLLALPESASSETLKDSIYQEMNAFKDPNSGDSAFVSFEQQTAMLQNMLAKVEPGTHLYEALNGVLVGSMNAQSQMTSWMQEIILSGGENKEAIDW”, the “soluble on expression in E. coli” value is listed as “not soluble”.

Consider “MIQAVLFDLDGTLADTALDLGGALNTLLARHGLPAKSMDEIRTQASHGAAGLIKLGAGITPDHPDYARWRTEYLDEYDSRYAQDTTLF”, for which the “soluble on expression in E. coli” value was “not soluble”.

For the sequence “MIREDEVRKLVGEMREPFLQRPLGELDAVKEIKIKPEKRHISVKVALAKTGTAEQMQIQQEIVNVLKGAGAETVGLRFEELPEETVAKFRAPSAEKKTLLNMDNPPVFLAVASGKGGVGKSTVSVNLAISLARLGKKVGLIDADIYGFSVPDMMGITVRPTIEGEKLLPVERFGVKVMSMGFFVEENAPVVWRGPMLGKMLNNFFHEVEWGEVDYIVLDLPPGTGDVALDVHTMLPSCKEIIVSTPHPTAAFVAARAGSMAIKTDHEVVGVIENMAYYESAKTGEREYVFGKGGGDKLAEELNVPLLGRIPLKQPDWDKDQFAPSVYDENHPIGEIYQDIAKKIDAKMSVQVLEHHHHHH”, the “soluble on expression in E. coli” value is “soluble”.

Consider “MIREFSEDDIEPLATGAWILGTGGGGNPYISTLNLRRLYAEGRRVKVMDPMALADDDMVAVVSKMGAPLVGQERLGDPAHLARAVEVMEDYLGKPFRAIMSVEIGGSNALSSFLAAAVLDRPVVNADAMGRAYPEAQMTSFAIGNLPMFPLSLVDVRDNEVIVTRAASWKWMERISRKVCTEVGSTAATCKAPRTGKEVKEWGIHYTVTKATELGRAVMEARARHDDPVQAVLDHEGGKQLFRGKVVDVARETTGGFLRGSTTIEGIDADRGSRMELAFQNEWAVAFRDGQPVAMTPDLLCLLDTVSGGAIGTESVRYGQRVTVVALPAPELLTTPAGIDAVGPRAFGYDIDFRSVFPLEHHHHHH”, for which the “soluble on expression in E. coli” value was “soluble”.

As to “MIRINNIILDIDEDLENLKNKAAKKLKVSKESFESFKILRESIDARKKDVIKFNYSVEVKCKNESKIISKIHGKDAILEKNKEEERFQFGNEKLKHRPIVIGTGPCGMFAALTLAENGYAPLVIERGENVEKRTETVDNFWKTGVLNTESNVQFGEGGAGTFSDGKLTTRIKDPRCTYVLEEFIKSGAPEEIGYVGKPHIGTDILKKVVKNIRERIISLGGEVKFNSKLEDIIIKNDSIEAVVVNGAEIPCECLVLAIGHSSRDTYEMLHKKGIFMDPKPFAIGVRIEHPQDFINESQYGKYKNHPRLKAADYKLTHTTKDKRGVYSFCMCPGGEVVASSSEDERLVCNGMSYYKRDLENANAALVVTVNSEDFKASKELYNKDISDNSPLIGMEFQRYYEHLAYLAGGGNYNAPIQLVGDFMKDTVSSKLGSVKPSYTPGYKFASLSECLPPYVIAALKEGLVNFDKKITGYMLSDAVMTGIETRTSAPLKITRNESLESISLKGLYPSGEGAGFAGGIISAAVDGVKSAESIMRKYKILEHHHHHH”, the “soluble on expression in E. coli” value is “not soluble”.

With “MIRKDDILKMTEKGISVFRYYLPVDFKVGKNFLNPFYKDTKASCNIYYERKAGVFKMKDFGNEDYSGDCFELVGRLNGLSCKEPKEFVEIMEMINRDLHLGLSAHEEYHVSHSKVPQKSEVVSEEPKAKSVRPYTVVQKPFTAAELAFWGKSGIGENVLKAYRTVSLKKFSSENQERKPFSCMTSVDEPMFGYMGKQHIKVYRPCSQMRFLYAGDFGDNYCFGLEQLPAKGDLLFITGGEKDVMSLAAHGFHAICFNSETAFIPAAVIHRLSFRFKHIILLYDVDSTGLKSSAKREEELKEYGIKRLLLPLAGTKTEKDVSDYFMLGNSREDLIKLFLDYLETLYSETMSALKSCEVDFNNPPPIAQMIVSVNDVPLGTQGNLLCITGGEGTGKSNYVAALIAGAIRPTGTDVDALGVTLHENSRNKAVLFYDTEQSEVQLYKNISNLLRRCGREAMPEWFKAYCLTGMSRKERLLSIIQSLDKYHYQYGGVHLVVIDGIADLIKCANDEAESIAVVEELYRLAGIYKTCIVTVLHFIPNGLKLRGHLGSELQRKAAAILSIEKDSDPAISVVKALKVRDGSPLDVPIMQFSWDKEKAMHVYLGEKPKEEKDKRKEDELVAVAKEVFSRRRFVTYVELAEEIQSILEVKERTAKSYIRFMREKEIILKSSDNQSYYVVGNF”, the “soluble on expression in E. coli” value is recorded as “not soluble”.

In the case of “MIRLAPLITADVDTTTLPGGKASDAAQDFLALLSEALAGETTTDKAAPQLLVATDKPTAKGEPLVSDILSDAQQADLLIPVDETPPVINDEQSTLTPLTTAQTMTLAAVADKNTTKDEKADDLNEDVTASLSALFAMLPGFDNTPKVTDAPSTVLPAEKPTLFTKLTSAQLTTAQPDDAPGTPAQPLTPLVAEAQSKAEVISTPSPVTADASPLITPHQTQPLPTVAAPVLSAPLGSHEWQQSLSQHISLFTRQGQQSAELRLHPQDLGEVQISLKVDDNQAQIQMISPHQHVRAALEAALPVLRTQLAESGIQLGQSNISGESFSGQQQAASQQQQSQRTANHEPLAGEDDDTLPVPVSLQGRVTGNSGVDIFA”, the “soluble on expression in E. coli” value is given as “soluble”.

For the sequence “MIRLILILINILFCHYLYALDCQKRLFDISINEKLSIQESLDELAKYCSFSIIVKDKIAKEKLETLQNSVNIHQMSLDEIFNFFIKEHDLSYDFDGKILRISGINTKIFKISYITSIREGQSITKASVDAKPRQSEYSGSFDDAEDNMIKSMEKFDFWQNIEKEIIVLLKNSHEDYEAKTPIINPNAGLIIVTGTNSQLKSVKNYLQKLENRLKKQVIIDVSILAVSLNESHSSGINWQNFNIGLNSQVNNENSFIQFQNGQGFVKNLGLRANLNFDSIINFLSQNGKTSVLSNPKLMALNNQQAIISVGDTINYQVKESSKGTENGTTVSESYNNYSIFVGILLNILPEISDDGKIMLRINPSLSDFKYPEDNKRQKEPRTIAPDTIQKKLSSVVQVENNQTLILGGLISHDKSNEKNSINFLSKIPILGSLFKGEVLNSKATEIVFIITPSIVDSVNAPSLKDLGFKHYELEHHHHHH”, the “soluble on expression in E. coli” value was “not soluble”.

Regarding “MIRLSNENTIFFMDKENVPIASCQSGDTVIFETKDCFSDQITNEEQALTSIDFNRVNPATGPLYVEGARRGDMLEIEILDIKVGKQGVMTAAPGLGALGESLNSPTTKLFPIEGDDVVYSTGLRLPLQPMIGVIGTAPPGEPINNGTPGPHGGNLDTKDIKPGTTVYLPVEVDGALLALGDLHAAMGDGEILICGVEIAGTVTLKVNVKKERMFPLPALKTDTHFMTIASAETLDAAAVQATKNMATFLANRTALSIEEAGMLLSGAGDLYVSQIVNPLKTARFSLALHYFEKLGVDLCNLEHHHHHH”, the “soluble on expression in E. coli” value is recorded as “soluble”.

Consider “MIRPKPIAFEQPQTMPSILYPIHPPFRREELVTPTRENQIFKELLISISIYNSGEERLERITRPPLMASIPNGRFYNCRVRSSGSKTKAIFQQFKISVCSRE”, for which the “soluble on expression in E. coli” value is recorded as “not soluble”.
